Measured values published in US20090136481A1.

Target: recombinant myostatin
Experiment: cell-based or functional assay

macrophage migration in chemotaxis assay (ZAMS medium with 5 µg/ml myostatin, with or without 350 protein): 20 fold
Substance: 350 protein (dominant negative peptide of myostatin C-terminally truncated at amino acid 350; amino acids 267-350 of bovine myostatin) (from UniProt O18836 267-350)
